The record followed here is US20030224487A1.

The target in assay [1] is human zcytor17 receptor, full length, on transfected cells (human). In words: flow cytometry (SA-PE), BHK-C17 cells, ligand 0.00001 µg/mL. On the technique in general: In flow cytometry, cells or beads pass a laser one at a time.
The target of assay [2] is human zcytor17 and OSMRbeta co-expressed on transfected cells (human). Briefly: flow cytometry (SA-PE), BHK C17 + OSMRbeta cells, ligand 2.0 µg/mL.
Assay [3] has the same target. In words: flow cytometry (SA-PE), BHK C17 + OSMRbeta cells, ligand 0.000001 µg/mL.
For assay [4] the target is unchanged. Briefly: flow cytometry (SA-PE), BHK C17 + OSMRbeta cells, ligand 0.100 µg/mL.
Assay [5] has the same target. In words: flow cytometry (SA-PE), BHK C17 + OSMRbeta cells, ligand 0.00001 µg/mL.
In assay [6] the target is human OncostatinM receptor beta (OSMRbeta), full length, on transfected cells (human). Briefly: flow cytometry (SA-PE), BAF3-OSMRbeta cells, ligand 0.00 µg/mL (no ligand, background).
The target in assay [7] is human zcytor17 and OSMRbeta co-expressed on transfected cells (human). Briefly: flow cytometry (SA-PE), BAF3-C17 + OSMRbeta cells, ligand 0.12 µg/mL.
The target is the same in assay [8]. Briefly: flow cytometry (SA-PE), BAF3-C17 + OSMRbeta cells, ligand 0.04 µg/mL.
Assay [9] addresses human OncostatinM receptor beta (OSMRbeta), full length, on transfected cells (human). Briefly: flow cytometry (SA-PE), BHK-OSMRbeta cells, ligand 0.0 µg/mL (no ligand, background).
Assay [10] has the same target. Briefly: flow cytometry (SA-PE), BAF3-OSMRbeta cells, ligand 1.11 µg/mL (background level; no binding).
In assay [11] the target is human zcytor17 receptor, full length, on transfected cells (human). In words: flow cytometry (SA-PE), BHK-C17 cells, ligand 0.0001 µg/mL.
The target is the same in assay [12]. In words: flow cytometry (SA-PE), BHK-C17 cells, ligand 0.0 µg/mL (no ligand, background).
The target of assay [13] is human OncostatinM receptor beta (OSMRbeta), full length, on transfected cells (human). Briefly: flow cytometry (SA-PE), BAF3-OSMRbeta cells, ligand 0.37 µg/mL (background level; no binding).
In assay [14] the target is human zcytor17 and OSMRbeta co-expressed on transfected cells (human). In words: flow cytometry (SA-PE), BHK C17 + OSMRbeta cells, ligand 0.010 µg/mL.
For assay [15] the target is unchanged. Briefly: flow cytometry (SA-PE), BAF3-C17 + OSMRbeta cells, ligand 0.00 µg/mL (no ligand, background).
The target of assay [16] is human zcytor17 receptor, full length, on transfected cells (human). Briefly: flow cytometry (SA-PE), BHK-C17 cells, ligand 0.001 µg/mL.
Assay [17] deals with human zcytor17 and OSMRbeta co-expressed on transfected cells (human). In words: flow cytometry (SA-PE), BAF3-C17 + OSMRbeta cells, ligand 1.11 µg/mL.
The target of assay [18] is human OncostatinM receptor beta (OSMRbeta), full length, on transfected cells (human). In words: flow cytometry (SA-PE), BHK-OSMRbeta cells, ligand 2.0 µg/mL (background level; no binding).
The target in assay [19] is human zcytor17 receptor, full length, on transfected cells (human). Briefly: flow cytometry (SA-PE), BAF3-C17 cells, ligand 100.0 ng/mL.
The target is the same in assay [20]. In words: flow cytometry (SA-PE), BHK-C17 cells, ligand 0.100 µg/mL.
Assay [21] deals with human OncostatinM receptor beta (OSMRbeta), full length, on transfected cells (human). In words: flow cytometry (SA-PE), BAF3-OSMRbeta cells, ligand 0.12 µg/mL (background level; no binding).
Assay [22] concerns the target human zcytor17 receptor, full length, on transfected cells (human). In words: flow cytometry (SA-PE), BAF3-C17 cells, ligand 0.0 ng/mL (no ligand, background).
Assay [23] addresses human zcytor17 and OSMRbeta co-expressed on transfected cells (human). In words: flow cytometry (SA-PE), BAF3-C17 + OSMRbeta cells, ligand 3.33 µg/mL.
Assay [24] shares this target. In words: flow cytometry (SA-PE), BHK C17 + OSMRbeta cells, ligand 0.0001 µg/mL.
Assay [25] has as its target human zcytor17 receptor, full length, on transfected cells (human). In words: flow cytometry (SA-PE), BAF3-C17 cells, ligand 1.0 ng/mL.
Assay [26] addresses human OncostatinM receptor beta (OSMRbeta), full length, on transfected cells (human). Briefly: flow cytometry (SA-PE), BAF3-OSMRbeta cells, ligand 3.33 µg/mL (background level; no binding).
Assay [27] deals with human zcytor17 and OSMRbeta co-expressed on transfected cells (human). Briefly: flow cytometry (SA-PE), BHK C17 + OSMRbeta cells, ligand 0.0 µg/mL (no ligand, background).
Assay [28] addresses human OncostatinM receptor beta (OSMRbeta), full length, on transfected cells (human). In words: flow cytometry (SA-PE), BAF3-OSMRbeta cells, ligand 10.0 µg/mL (background level; no binding).
For assay [29], the target named is human zcytor17 receptor, full length, on transfected cells (human). In words: flow cytometry (SA-PE), BHK-C17 cells, ligand 0.000001 µg/mL.
The target is the same in assay [30]. In words: flow cytometry (SA-PE), BHK-C17 cells, ligand 2.0 µg/mL.
The target is the same in assay [31]. Briefly: flow cytometry (SA-PE), BHK-C17 cells, ligand 0.010 µg/mL.
The target in assay [32] is human zcytor17 and OSMRbeta co-expressed on transfected cells (human). Briefly: flow cytometry (SA-PE), BHK C17 + OSMRbeta cells, ligand 0.001 µg/mL.
Assay [33] has the same target. Briefly: flow cytometry (SA-PE), BAF3-C17 + OSMRbeta cells, ligand 0.37 µg/mL.
The target is the same in assay [34]. In words: flow cytometry (SA-PE), BAF3-C17 + OSMRbeta cells, ligand 10.0 µg/mL.
Assay [35] has as its target human OncostatinM receptor beta (OSMRbeta), full length, on transfected cells (human). In words: flow cytometry (SA-PE), BAF3-OSMRbeta cells, ligand 0.04 µg/mL (background level; no binding).
Assay [36] addresses human zcytor17 receptor, full length, on transfected cells (human). In words: flow cytometry (SA-PE), BAF3-C17 cells, ligand 10.0 ng/mL.
The target of assay [37] is human zcytor17 and OSMRbeta co-expressed on transfected cells (human). Briefly: cell-based or functional assay.
Assay [38] deals with human zcytor17, OSMRbeta and WSX-1 co-expressed on transfected cells (human). Briefly: cell-based or functional assay.

As for biotinylated human zcytor17L (ligand), the mean fluorescent intensity (MFI) came out at 15 in assay [1]; 3780 in assay [2]; 14 in assay [3]; 2130 in assay [4]; 15 in assay [5]; 11 in [6]. Besides, the mean fluorescent intensity (MFI) in assay [7] stood at 364; in assay [8], 247; in assay [9], 0; in assay [10] it was 5; in [11] it was 16; in assay [12], 15. In addition, the mean fluorescent intensity (MFI) in assay [13] worked out at 5; in [14] it was 328; in assay [15], 7; in assay [16] it was 39; in assay [17] it was 489; in assay [18] it was 13. For the same molecule, the mean fluorescent intensity (MFI) in assay [19] worked out at 347; in assay [20] it was 1600; in [21], 5; in assay [22], 7; in assay [23], 508; in [24] it was 17. In addition, the mean fluorescent intensity (MFI) in assay [25] turned out to be 17; in assay [26] it was 5; in assay [27], 13; in [28], 6; in assay [29], 14; in assay [30], 3030. For the same molecule, the mean fluorescent intensity (MFI) in [31] came to 244; in assay [32] it was 53; in assay [33] it was 441; in assay [34] it was 531; in assay [35], 5; in [36], 72.

B1: human zcytor17lig (untagged, expressed from cDNA or native in conditioned media) (ligand)
chain: MASHSGPSTSVLFLFCCLGGWLASHTLPVRLLRPSDDVQKIVEELQSLSKMLLKDVEEEKGVLVSQNYTLPCLSPDAQPPNNIHSPAIRAYLKTIRQLDNKSVIDEIIEHLDKLIFQDAPETNISVPTDTHECKRFILTISQQFSECMDLALKSLTSGAQQATT
In assay [37], B1 returned a proliferation of BaF3/zcytor17/OSMRbeta cells (Alamar Blue) with conditioned media from activated CCRF-CEM and CCRF-HSB2 cells (fold over background) of 10; a proliferation of BaF3/zcytor17/OSMRbeta cells (Alamar Blue) with conditioned media from activated CD3+ selected human cells of 15 fold. In [38], this molecule returned a proliferation of BaF3/zcytor17/WSX-1/OSMRbeta cells (Alamar Blue) with conditioned media from activated CCRF-CEM and CCRF-HSB2 cells (fold over background) of 10; a proliferation of BaF3/zcytor17/WSX-1/OSMRbeta cells (Alamar Blue) with conditioned media from activated CD3+ selected human cells (fold over background) of 15.
